Laboratory results reported in patent US20140112919A1, “INTERLEUKIN-10 ANTIBODIES” (MERCK SHARP & DOHME CORP., published 2014).

Target: humanized anti-human IL-10 antibody SCH 708980 (12G8) (Homo sapiens)
Assay: competitive ECLA (IGEN): unlabeled IL-10 titrated against hIL-10-biotin for binding to humanized 12G8-1
Method: 96 well Polypropylene plates (Costar, Cat. No. 3365, Fisher Sci. Cat. No. 07200697); assay buffer of 0.1% BSA, 0.05% tween 20, PBS pH 7.5; paramagnetic beads (Streptavidin-Dynabeads, Igen, Inc., Cat. No. 110029); recombinant human IL-10 dimer (hIL-10-dimer); recombinant human IL-10-monomer (hIL-10-mono); recombinant mouse IL-10 (mIL-10); recombinant cyno IL-10 (cyno IL-10); and recombinant hIL-10Ra (hIL-10Ra): FLAG-tagged protein. Ori-Tag labeled anti-FLAG M2 monoclonal antibodies were prepared using Ori-Tag-NHS ester (Igen, Inc. Cat. No. 110034) according to manufacturer's protocol (OriTag label: IgG challenge ratio 8:1). Anti-Flag M2 monoclonal antibodies were purchased from Sigma (Cat. No. F3165). Ori-Tag labeled anti hIgG 1A2 monoclonal antibodies were prepared as above using rat anti hIgG monoclonal antibodies. Ori-Tag labeled anti rat IgG antibodies were prepared as above from polyclonal Goat anti rat IgG (H+L) antibodies (Jackson Immunoresearch Laboratories, Inc. PA, Cat. No. 112-005-143). Biotinylated recombinant human IL-10
1/3 serial dilutions in 50 microliters of the assay buffer were made in 96-well microtiter plate for all unlabeled IL-10 preparations (mIL-10, cyno IL-10, hIL-10 dimer, hIL-10 mono) starting with 3 μg/ml in the first well. […] Percent inhibition of the signal by unlabeled IL-10 preparations was calculated relative to the control samples. […]

humanized anti-human IL-10 antibody SCH 708980 (12G8) (Homo sapiens), sequence (VH, as listed by the source, chain 1 of 2): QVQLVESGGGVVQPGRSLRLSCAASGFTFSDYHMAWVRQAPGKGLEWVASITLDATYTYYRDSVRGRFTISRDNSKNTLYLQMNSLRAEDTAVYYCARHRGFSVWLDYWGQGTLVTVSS
humanized anti-human IL-10 antibody SCH 708980 (12G8) (Homo sapiens), sequence (VL, as listed by the source, chain 2 of 2): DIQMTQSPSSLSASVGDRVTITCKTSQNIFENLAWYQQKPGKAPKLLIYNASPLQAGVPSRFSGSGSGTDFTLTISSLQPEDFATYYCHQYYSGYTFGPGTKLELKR

IC50: 5.8 nM
B1: recombinant human IL-10-monomer (ligand)
chain: SPGQGTQSENSCTHFPGNLPNMLRDLRDAFSRVKTFFQMKDQLDNLLLKESLLEDFKGYLGCQALSEMIQFYLEEVMPQAENQDPDIKAHVNSLGENLKTLRLRLRRCHRFLPCENKSKAVEQVKNAFNKLQEKGIYKAMSEFDIFINYIEAYMTMKIRN
